Consider 30 sequences from the nanobody polyreactivity screen of Harvey et al. (2022).

This data set in a line: yeast display, Sf9 membrane polyspecificity reagent, FACS + sequencing; frameworks hold sequencing errors. The essentials: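 After 36–48 hours of galactose induction, yeast (Saccharomyces cerevisiae BJ5465) displaying a synthetic nanobody library were stained at 4 °C for 1 hour with 10% biotinylated, detergent-solubilized Sf9 membrane reagent. Streptavidin microbeads enriched the stained cells before FACS sorting into low and high (top ~1%) gates on anti-HA and streptavidin fluorescence. Each clone's polyreactivity label reflects its gate of origin.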
Consider “QVQLVESVGGLVQAGGSLRLSCAASGRTFAAYAMGWYRQAPGKERELVAGITSSSVRTYYADSVKGRFTISRDNAKNTVYLQMNSLKPEDTAVYYCNARADGSSSRWRPYSKFYYWGQGTQVTVSS”, for which the “polyreactivity (PSR sort gate)” value was “low polyreactivity”.

As to “QVQLVESVGGLVQAGGSLRLSCAASGRTFAGNAMGWYRQAPGKEREFVASITASGVNTYYADSVKGRFTISRDNAKNTVYLQMNSLKPEDTAVYYCNKRNRWTPFYTYDYWGQGTQVTVSS”, the “polyreactivity (PSR sort gate)” value is listed as “low polyreactivity”.

On to “QVQLVESVGGLVQAGGSLRLSCAASGRTFAYYTMGWYRQAPGKERELVARISGYGGSTYYADSVKGRFTISRDNAKNTVYLQMNSLKPEDTAVYYCNVVGAYYRYDYWGQGTQVTVSS”, for which the “polyreactivity (PSR sort gate)” value is listed as “high polyreactivity”. To “QVQLVESVGGLVQAGGSLRLSCAASGRTFFPYAMGWYRQAPGKEREFVAAITKTDDSTYYADSVKGRFTISRDNAKNTVYLQMNSLKPEDTAVYYCNAGDTQIRFYYWGQGTQVTVSS” belongs “low polyreactivity”; to “QVQLVESVGGLVQAGGSLRLSCAASGRTFFYNAMGWYRQAPGKERELVAAIDWSGDSTYYADSVKGRFTISRDNAKNTVYLQMNSLKPEDTAVYYCAARRKNRRDYDYYYWGQGTQVTVSS”, “high polyreactivity”; to “QVQLVESVGGLVQAGGSLRLSCAASGRTFGTYAMGWYRQAPGKERELVAAISTRGGRTFYADSVKGRFTISRDNAKNTVYLQMNSLKPEDTAVYYCAKGVFTWGVFRVGIRDDYWGQGTQVTVSS”, “high polyreactivity”. To “QVQLVESVGGLVQAGGSLRLSCAASGRTFHYYVMGWYRQEPGKEGELVAAISRSGGNTYYADSVKGRFTISRDNAQNTVYLQMNSLKPEDTADYYCAAALSAYVKWDYYYWGQGTQVTVSS” belongs “high polyreactivity”. With “QVQLVESVGGLVQAGGSLRLSCAASGRTFLYYTMGWYRQAPGKERELVAAISTSGGSTNYADSVKGRFTISRDNAKNTVYLQMNSLKPEDTAVYYCAAETSTNPEAYEYWGQGTQVTVSS”, the “polyreactivity (PSR sort gate)” value is “low polyreactivity”.

Turning to “QVQLVESVGGLVQAGGSLRLSCAASGRTFSFYAMGRYRQRQGKESELVAGIDGNDGSTYYADSVKGRFTISRDNAKNTVYIQMNSLKPEDTAVYYCNAEKWTGQYCCYYRMYYYWGQGTQVTVSS”, the “polyreactivity (PSR sort gate)” value was “low polyreactivity”. For “QVQLVESVGGLVQAGGSLRLSCAASGRTFSVYTMGWYRQAPGKERELVASINWSGGRTYYADSVKGRFTISRDNAKNTVYLQMNSLKPEDTAVYYCAATGWRTLYDYWGQGTLVTVSS” the value was “high polyreactivity”; for “QVQLVESVGGLVQAGGSLRLSCAASGRTLSYYAMGRYRQAPGKVRELVAAISRRGGSTYYADSVKGRFTISRDKAKNTVYLQMNCLQSKDTAFYYCAATVGNAADYDYGYWGQGTQVTVSS”, “high polyreactivity”; for “QVQLVESVGGLVQAGGSLRLSCAASGSIFDSYAMGWYRQAPGKERELVADISSGGSTYYADSVKGRFTISRDNAKNTVYLQMNSLKPEDTAVYYCAAQYVYYFYGDEAFTDDYWGQGTQVTVSS”, “low polyreactivity”.

Take “QVQLVESVGGLVQAGGSLRLSCAASGSIFGYNAMGWYRQAPGKERELVAVINASGASTYYADSVKGRFTISRDNAKNTVYLQMNSLKPEDTAVYYCAKDPFPFPGGDDWGQGTQVTVSS”: the “polyreactivity (PSR sort gate)” value is “low polyreactivity”.

As to “QVQLVESVGGLVQAGGSLRLSCAASGSIFGYYAMGWYRQAPGKDRELVAGINWSGGSTYADSVKGRFTISRDNAKNTVYIQMNSLKPEDTAVYYCNRRYRKDSSAKYDYWGQGTQVTVSS”, the “polyreactivity (PSR sort gate)” value is “high polyreactivity”. For “QVQLVESVGGLVQAGGSLRLSCAASGSIFSVNAMGWYRQAPGKERELVASINFRGGRTYYADSVKGRFTISRDNAKNTVYLQMNSLKPEDTAVYYCAAVITQTDTGYGPSFRVYYWGQGTQVTVSS” the value was “high polyreactivity”; for “QVQLVESVGGLVQAGGSLRLSCAASGSIFWFYAMGWYRQAPGKVRELVAAITSTGGTYYADSVKGRFTISRDNAKNTVYLQMNSLKPEDTSVYYCAADRFGVQGAYLYDYWGQGTQVTVSS”, “low polyreactivity”. For “QVQLVESVGGLVQAGGSLRLSCAASGSTFAGNAMGWSRQAPGKERELVAAIDSSTGSTYYADSVKGRFTISRDNAKNTVYLQMNSLKPEDTSVYYSNKTSFLVKLDYWGHGTQVTVSS” the value was “low polyreactivity”; for “QVQLVESVGGLVQAGGSLRLSCAASGSTFEIYAMGWYRQAPGKERELVAVISGGDGSTYYADSVKGRFTISRDNAKNTVYLQMNSLKPEDTAVYYCAADYISPGYWDGEYDCWGQGTQVTVSS”, “low polyreactivity”. Turning to “QVQLVESVGGLVQAGGSLRLSCAASGSTFRINAMGWYRQAPGKEMELVADINSGGNTTYADSVKGRFTISRDNAKNTVYLQMNSLKPEDTAVYYCAAEPVFDLWEFLLDYGYDYWGQGTQVTLSS”, the “polyreactivity (PSR sort gate)” value is recorded as “low polyreactivity”. To “QVQLVESVGGLVQAGGSLRLSCAASGSTFVPYAMGWYRQAPGKERELVAAITTSGGNTYYADSVKGRFTISRDNAKNTVYLQMNSLKPEDTAVYYCAADTYRSFDYWGQGTQVTVSS” belongs “low polyreactivity”. “QVQLVESVGGLVQAGGSLRLSCAASGSTFYFNDMGWYRQAPGKERELVAAISRGGSTYYADSVKGRFTISRDTAKNTVYLQMNSLKPEDTAVYYCANGSYVRNYGYWGQGTQVTVSS”: the “polyreactivity (PSR sort gate)” value is on record as “high polyreactivity”. To “QVQLVESVGGLVQAGGSLRLSCAASGSTFYPNAMGWYRQAPGKEREFVAAITWSGGRTYYADSVKGRFTNSRDNAKNTVYLQMNSLKPEDTAVYYCSKGGYQHYCGQGTQVTVSS” belongs “high polyreactivity”; to “QVQLVESVGGLVQAGGSLRLSCAASGSTIANYAMGWYRQAPGKERELVARIRHSDGSTYYADSVKGRFTISRDNAKNTVYLQMNSLKPEDTAVYYCNVAYPRYRGNPRQSGMGYWGQGTQVTVSS”, “high polyreactivity”.

As to “QVQLVESVGGLVQAGGSLRLSCAASGSTLYPYAMGWYRQAPGKERELVAVITLRGGSTYYADSVKGRFTISRDNAKNTVYLQMNSLKPEDTAVYYCAARKRPFYKYDYWGQGTQVTVSS”, the “polyreactivity (PSR sort gate)” value was “high polyreactivity”.

Regarding “QVQLVESVGGLVQAGGSLRLSCAASGSTSSLYAMGWYRQAPGKERELVASITSRGGSTYYAVSVKGRFTISRDNAKNTVYLLMNSLKPEDTAVYYCAADASRPDRWYLWKYYYWGQGTQVTVSS”, the “polyreactivity (PSR sort gate)” value is listed as “high polyreactivity”.

For “QVQLVESVGGLVQAGGSLRLSCAASGTFKWYAMGWYRQAPGKERELVAVISSSGGTTYYADSVKGRFTISRDNAKNTVYLQMNSLKPEDTAVYYCNKRFRSWTTGSPYDYWGQGTQVTVSS”, the “polyreactivity (PSR sort gate)” value is “high polyreactivity”. For “QVQLVESVGGLVQAGGSLRLSCAASGYIFGYNAMGWYRQAPGKERELVAAISRSAGRTYYADSVKGRFTISRDNAKNTVYLQMNSLKPEDTAVYYCAAQSYWLGYEYWGQGTQVTVSS” the value was “high polyreactivity”; for “QVQLVESVGGLVQAGGSLRLSCAASGYIFKYYAMGWYRQAPGKERELVAAISRSGGSTYYADSVKGRFTISRDNAKNTVYLQMNSLKPEDTAVYYCNAAAYVWKSKQRLYVITYDYWGQGTQVTVSW”, “high polyreactivity”; for “QVQLVESVGGLVQAGGSLRLSCAASGYTLGDYAMGWYRQAPGKERELVAVITRNGGRTYYADSVKGRFTISRDNAKNTVYLQMNSLKPEDTAVYYCNRDTSIRHYNYWGQGTQVTVSS”, “high polyreactivity”.

“QVQLVESVGGLVQAGGSLRLSCAASVYIFGYNAMGWYRQAPGKERELVAAISRSAGRTYYAVSVKGRFTISRDNAKNTVYLQMNSLKPEDTAVYYCAAQSYWLCYEYWGHGTQVTVSS”: the “polyreactivity (PSR sort gate)” value is reported as “high polyreactivity”.
